B1: human IL-22 (hIL-22) (ligand, UniProt Q9GZX6 34-179, looked up)
chain: APISSHCRLDKSNFQQPYITNRTFMLAKEASLADNNTDVRLIGEKLFHGVSMSERCYLMKQVLNFTLEEVLFPQSDRFQPYMQEVVPFLARLSNRLSTCHIEGDDLHIQRNVQKLKDTVKKLGESGEIKAIGELDLLFMSLRNACI
notes: interleukin-22, human; codon optimised; the IL-22 stretch is then probably the mature protein; also called native hIL-22; native human IL-22; source: CHO-S, transiently transfected, secreted, purified (HisTrap Excel, HiTrap Q flow-through)
B2: hIL-22-GLP1 (human IL-22 fused to a GLP1 receptor binding protein) (other)
chain: B1 chain

Biological target: the molecule itself
Assay: SEC + other: Western blot; HPLC-SEC: 50 uL of purified protein at 0.5 mg/mL on TSKgel 3000SWXL, 0.8 mL/min, PBS + 200 mM NaCl (pH 7.3), gel filtration standard for apparent molecular weight; Western blot conditions not told

Protein	stoichiometry N
B1	2
B2	2

— publication PMC11137118, “Liver and pancreatic-targeted interleukin-22 as a therapeutic for metabolic dysfunction-associated steatohepatitis” (Nature Communications, 2024)
